From US20160002348A1

Molecular target: properdin-bound C3b (human) (UniProt P27918)
Experiment: ELISA, factor B titrated on C3b-coated plates with properdin

Sequence of human factor B (P00751 other isoform, or with tags, fused parts or gaps limits assumed): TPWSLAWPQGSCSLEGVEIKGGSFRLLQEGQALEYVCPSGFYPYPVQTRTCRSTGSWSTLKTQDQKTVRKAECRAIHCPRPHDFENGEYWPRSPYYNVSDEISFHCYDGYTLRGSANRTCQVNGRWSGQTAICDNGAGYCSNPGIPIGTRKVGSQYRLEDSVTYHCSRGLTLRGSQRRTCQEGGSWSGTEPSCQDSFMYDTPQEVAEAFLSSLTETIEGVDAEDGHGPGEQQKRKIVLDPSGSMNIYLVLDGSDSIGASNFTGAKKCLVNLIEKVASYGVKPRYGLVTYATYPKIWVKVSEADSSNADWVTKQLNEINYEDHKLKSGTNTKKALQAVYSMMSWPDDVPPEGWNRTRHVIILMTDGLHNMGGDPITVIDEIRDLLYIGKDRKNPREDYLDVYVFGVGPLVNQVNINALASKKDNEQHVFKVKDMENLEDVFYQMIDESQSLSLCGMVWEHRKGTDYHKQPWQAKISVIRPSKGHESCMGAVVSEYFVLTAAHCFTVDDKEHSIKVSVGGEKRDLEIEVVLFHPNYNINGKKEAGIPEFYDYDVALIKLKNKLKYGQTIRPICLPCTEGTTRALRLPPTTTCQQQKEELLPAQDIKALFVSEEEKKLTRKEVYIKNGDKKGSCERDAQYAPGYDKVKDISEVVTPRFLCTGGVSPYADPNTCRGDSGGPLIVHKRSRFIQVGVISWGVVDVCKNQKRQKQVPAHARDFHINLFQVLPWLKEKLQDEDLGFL

For “human factor B (from UniProt P00751 26-764) (enzyme)”, the Kd was 1.11 nM.
